Assay results as given in paper PMC10496494 (2023).

Target: NPM1 (human wildtype nucleophosmin, residues 1 to 290), purified recombinant (human, UniProt P06748 1-290)
Test: SPR; NPM1 immobilised, DDX24^WT as analyte

Sequence of NPM1 (human wildtype nucleophosmin, residues 1 to 290), purified recombinant (P06748 1-290): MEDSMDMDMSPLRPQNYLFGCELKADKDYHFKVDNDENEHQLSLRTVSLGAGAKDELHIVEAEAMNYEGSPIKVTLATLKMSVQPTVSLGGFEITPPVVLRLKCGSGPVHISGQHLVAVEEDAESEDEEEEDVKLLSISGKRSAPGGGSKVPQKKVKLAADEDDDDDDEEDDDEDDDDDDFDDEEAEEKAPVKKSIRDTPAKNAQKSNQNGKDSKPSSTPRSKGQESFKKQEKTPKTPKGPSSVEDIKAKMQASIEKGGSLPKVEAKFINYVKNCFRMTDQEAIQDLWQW

B1: DDX24^WT (human wildtype DDX24, residues 28 to 859), purified recombinant (domain or fragment)
chain: KWKEVKIDPNMFADGQMDDLVCFEELTDYQLVSPAKNPSSLFSKEAPKRKAQAVSEEEEEEEGKSSSPKKKIKLKKSKNVATEGTSTQKEFEVKDPELEAQGDDMVCDDPEAGEMTSENLVQTAPKKKKNKGKKGLEPSQSTAAKVPKKAKTWIPEVHDQKADVSAWKDLFVPRPVLRALSFLGFSAPTPIQALTLAPAIRDKLDILGAAETGSGKTLAFAIPMIHAVLQWQKRNAAPPPSNTEAPPGETRTEAGAETRSPGKAEAESDALPDDTVIESEALPSDIAAEARAKTGGTVSDQALLFGDDDAGEGPSSLIREKPVPKQNENEEENLDKEQTGNLKQELDDKSATCKAYPKRPLLGLVLTPTRELAVQVKQHIDAVARFTGIKTAILVGGMSTQKQQRMLNRRPEIVVATPGRLWELIKEKHYHLRNLRQLRCLVVDEADRMVEKGHFAELSQLLEMLNDSQYNPKRQTLVFSATLTLVHQAPARILHKKHTKKMDKTAKLDLLMQKIGMRGKPKVIDLTRNEATVETLTETKIHCETDEKDFYLYYFLMQYPGRSLVFANSISCIKRLSGLLKVLDIMPLTLHACMHQKQRLRNLEQFARLEDCVLLATDVAARGLDIPKVQHVIHYQVPRTSEIYVHRSGRTARATNEGLSLMLIGPEDVINFKKIYKTLKKDEDIPLFPVQTKYMDVVKERIRLARQIEKSEYRNFQACLHNSWIEQAAAALEIELEEDMYKGGKADQQEERRRQKQMKVLKKELRHLLSQPLFTESQKTKYPTQSGKPPLLVSAPSKSESALSCLSKQKKKKTKKPKEPQPEQPQPSTSAN
**Q.** B1 was tested. Which Kd did it give?
**A.** The Kd was 2.4 nM.
